Experimental data taken from publication PMC11719512, “Exploring the Binding Mechanism of ADGRG2 Through Metadynamics and Biochemical Analysis” (International Journal of Molecular Sciences, 2024).
Residue numbers refer to the chain shown, from its start. In names and notes the source's numbering stands.

Key:
ADGRG2 [1] = settings: cited from earlier work; for activity on ADGRG2 (agonist or antagonist): steroid hormones, endogenous, ref [23]
Description: Stachel (sequence: TSFGILLDLSRTSLP, with individual residues numbered from ss01 to ss15, where “ss” denotes Stachel sequence) is a key functional element of ADGRG2, playing a critical role in regulating the conformation and function of the receptor [8]. The Stachel sequence plays a pivotal role in receptor activation by mediating ligand binding and initiating the conformational changes required for signal transduction, highlighting its biological significance. In previous studies, the wild-type ADGRG2 Stachel sequence-derived peptidic agonist, VPM, was found t ... || Figure 1 Structural and binding analysis of ADGRG2 with agonists and antagonists. (A) Structure of ADGRG2, highlighting key domains involved in ligand binding. Identified agonists (DHEA, DHEAS, IP15) and antagonists (DOC, F601D, F601E) are labeled. […] (B) Schematic representation of metadynamics simulations and ligand binding assay conducted to investigate the binding mechanisms of antagonists F601D, F601E, and DOC to ADGRG2. (C) Structural representation of ADGRG2 in complex wi ...

ADGRG2 [2] = assay: cAMP accumulation assay (GloSensor) with wild-type ADGRG2 and mutants; type: cell-based; settings: HEK293, GloSensor; agonist IP15 alone, then with antagonist; mean ± SEM, n = 3
Procedure: To assess the cAMP accumulation induced by receptor activation, HEK293 cells were transfected with plasmids for wild-type ADGRG2 or its mutants (ADGRG2-T624A, ADGRG2-C628A, ADGRG2-N668A, ADGRG2-Y758A, ADGRG2-K760A, ADGRG2-D768A, ADGRG2-N773A, ADGRG2-N775A, ADGRG2-N849A, ADGRG2-N860A) alongside the GloSensor plasmid or an empty vector (pcDNA3.1). Following a 24-h incubation at 37 °C with 5% CO2, the transfected cells were plated at a density of 4 × 10^4 per well in 96-well plates and incubated for an additional 24 h. The cells were then pre-treated with serum-free medium containing 5% (v/v) GloSensor cAMP reagent stock solution for 2 h. cAMP signals induced by IP15 were measured immediately after adding the agonists. Luminescence was recorded for at least 20 min per well, and the data were analyzed using sigmoidal dose–response functions in GraphPad Prism v.9.0.

DOC = assay: BRET-based binding assay; settings: parent: est. -7.3; read off a plot
[3] = test system: ADGRG2 (Nluc-ADGRG2 and its alanine mutants); assay: FlAsh-BRET / BRET-based ligand binding assay with ADGRG2 mutants; settings: HEK293, competition with 50 μM IP15–FITC, 10^−9 to 10^−4 M competitor, HBSS, 40 min at 37 °C; mean ± SEM, n = 3
Procedure: HEK293 cells were transiently transfected with plasmids for Nluc-ADGRG2 and its various mutants (ADGRG2-T624A, ADGRG2-C628A, ADGRG2-N668A, ADGRG2-Y758A, ADGRG2-K760A, ADGRG2-D768A, ADGRG2-N773A, ADGRG2-N775A, ADGRG2-N849A, ADGRG2-N860A). The cells were plated at a density of 3 × 10^4 per well in a black 96-well plate and cultured for 48 h at 37 °C with 5% CO2. To assess saturation binding, increasing concentrations of FITC-labeled IP15 (IP15–FITC) were added, alongside or without 300 μM of unlabeled IP15, for a 40-min incubation at 37 °C. For competitive binding assays, cells were treated with 50 μM IP15–FITC and varying concentrations (10^−9 to 10^−4 M) of competing peptides in HBSS buffer (containing 25 mM HEPES, 10 mM glucose, 146 mM NaCl, 5 mM KCl, 1 mM MgSO4, 2 mM sodium pyruvate, and 1.3 mM CaCl2) for 40 min at 37 °C. Coelenterazine H (final concentration of 5 μM, Promega) was added just before measuring BRET signals using a Mithras LB 940 Multimode Microplate Reader. Light emissions were recorded at 460 nm (80 nm bandpass) and 535 nm (60 nm bandpass) for IP15–FITC, and the raw BRET ratio was calculated as the 535 nm emission divided by the 460 nm emission.

VPM-F601E, Q8CJ12 = target: T1, VPM-F601E, Q8CJ12; assay: BRET-based binding assay; settings: chain shown with the change;, read off a plot
T1 chain: TSEGILLDLSRTSLP

VPM-F601D, Q8CJ12 = target: T2, VPM-F601D, Q8CJ12; assay: BRET-based binding assay; settings: chain shown with the change;; parent: est. -8.0; read off a plot
T2 chain: TSDGILLDLSRTSLP

**Q.** For `C[C@]12CC[C@H](O)CC1=CC[C@@H]1[C@@H]2CC[C@]2(C)C(=O)CC[C@@H]12` [DHEA, dehydroepiandrosterone], which “activity on ADGRG2 (agonist or antagonist)” value (“activity on ADGRG2” below) (ADGRG2 [1]) is on record?
**A.** endogenous agonists

**Q.** Which “activity on ADGRG2” value (ADGRG2 [1]) does the source give for `C[C@]12CC[C@H](OS(=O)(=O)O)CC1=CC[C@@H]1[C@@H]2CC[C@]2(C)C(=O)CC[C@@H]12` [DHEAS] here?
**A.** endogenous agonists

**Q.** With IS 4PH GILLDLSRTSLP [IP15] as the molecule, how does the “IP15-induced cAMP accumulation, effect of ADGRG2 mutations” value (ADGRG2 [2]) read?
**A.** the effects of these mutations are specific to the antagonists and not due to disruption of interactions between receptor residues that contribute to agonist-induced activation

**Q.** What about the “agonistic activity / receptor state stabilised” value (ADGRG2 [1]; Stachel-derived peptides, earlier work, ref [8],[11]) of the same molecule?
**A.** superior agonistic activity

**Q.** For “Nluc-ADGRG2 (wild type) (from UniProt Q8CJ12) D768A”, which IC50 (DOC) is on record?
**A.** -5.9 log10(M)

**Q.** For “Nluc-ADGRG2 (wild type) (from UniProt Q8CJ12) K760A”, which IC50 (DOC) is on record?
**A.** -5.6 log10(M)

**Q.** Which “binding to ADGRG2 with mutated polar residues (C628, N668, K760, D768, N860)” value [3] does the source give for deoxycorticosterone [DOC] here?
**A.** significantly weakened DOC’s ability to bind to ADGRG2

**Q.** And the “activity on ADGRG2” value (ADGRG2 [1])?
**A.** endogenous antagonist

B1: Nluc-ADGRG2 (wild type), Q8CJ12 Y758A (protein)
chain: LKENGNSSLLSPSAESSLVSLIPYSNGTPDAASEVLSTLNKTEKSKITIVKTFNASGVKSQRNICNLSSLCNDSVFFRGEIVFQHDEDHNVTQNQDTANGTFAGVLSLSELKRSELNKTLQTLSETYFIVCATAEAQSTVNCTFTVKLNETMNVCAMMVTFQTVQIRPMEQCCCSPRTPCPSSPEELEKLQCELQDPIVCLADQPHGPPLSSSSKPVVPQATIISHVASDFSLAEPLDHALMTPSTPSLTQESNLPSPQPTIPLASSPATDLPVQSVVVSSLPQTDLSHTLSPVQSSIPSPTTPAPSVPTELVTISTPPGETVVNTSTVSDLEAQVSQMEKALSLGSLEPNLAGEMVNRVSKLLHSPPALLAPLAQRLLKVVDAIGLQLNFSSTTISLTSPSLALAVIRVNASNFNTTTFAAQDPTNLQVSLETPPPENSIGAITLPSSLMNNLPANDVELASRIQFNFFETPALFQDPSLENLTLISYVISSSVTNMTIKNLTRNVTVALKHINPSPDDLTVKCVFWDLGRNGGKGGWSSDGCSVKDKRMNETICTCSHLTSFGILLDLSRTSLPPSQMMALTFITYIGCGLSSIFLSVTLVTYIAFEKIRRDYPSKILIQLCAALLLLNLIFLLDSWIALYNTRGFCIAVAVFLHYFLLVSFTWMGLEAFHMYLALVKVFNTYIRKYILKFCIVGWGIPAVVVSIVLTISPDNYGIGSAGKFPNGTPDDFCWINSNVVFYITVVGYFCVIFLLNVSMFIVVLVQLCRIKKKKQLGAQRKTSIQDLRSIAGLTFLLGITWGFAFFAWGPVNVTFMYLFAIFNTLQGFFIFIFYCAAKENVRKQWRRYLCCGKL
**Q.** With B1 as the molecule, how does the IC50 (VPM-F601E, Q8CJ12; parent: est. -8.5) read?
**A.** -7.1 log10(M)

B2: Nluc-ADGRG2 (wild type), Q8CJ12 K760A (protein)
chain: B1 chain with A721Y, K723A
**Q.** For B2, which IC50 (VPM-F601D, Q8CJ12) is on record?
**A.** -7.7 log10(M)

**Q.** And the IC50 (VPM-F601E, Q8CJ12; parent: est. -8.5)?
**A.** -7 log10(M)

B3: Nluc-ADGRG2 (wild type), Q8CJ12 N775A (protein)
chain: B1 chain with A721Y, N738A
**Q.** Which IC50 (VPM-F601D, Q8CJ12) does the source give for B3 here?
**A.** -7.6 log10(M)

**Q.** And the IC50 (VPM-F601E, Q8CJ12; parent: est. -8.1)?
**A.** -5.4 log10(M)

B4: Nluc-ADGRG2 (wild type), Q8CJ12 N849A (protein)
chain: B1 chain with A721Y, N812A
**Q.** With B4 as the molecule, how does the IC50 (VPM-F601D, Q8CJ12) read?
**A.** -7.9 log10(M)

B5: Nluc-ADGRG2 (wild type), Q8CJ12 N773A (protein)
chain: B1 chain with A721Y, N736A
**Q.** For B5, which IC50 (VPM-F601D, Q8CJ12) is on record?
**A.** -6.2 log10(M)
